Drawing on doi:10.1101/2023.10.13.562161, this text covers stoichiometry N for one substance.

The assay has as its target VanX^C78/157S. In words: SEC.

The substance VanX^C78/157S (enzyme) returned a stoichiometry N of 2.
